# Publication PMC4434323
# Columns and labels:
# [1] = tested on: T1, nhr-216 (T09D3.4) (Caenorhabditis elegans)
# T1 sequence: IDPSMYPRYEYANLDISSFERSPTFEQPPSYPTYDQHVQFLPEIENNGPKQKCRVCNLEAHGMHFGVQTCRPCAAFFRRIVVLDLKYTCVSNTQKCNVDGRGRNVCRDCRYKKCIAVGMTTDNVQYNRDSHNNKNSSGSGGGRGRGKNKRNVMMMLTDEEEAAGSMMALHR
# [2] = target: T2, nhr-204 (R02C2.4) (Caenorhabditis elegans) (UniProt O44543)
# T2 sequence: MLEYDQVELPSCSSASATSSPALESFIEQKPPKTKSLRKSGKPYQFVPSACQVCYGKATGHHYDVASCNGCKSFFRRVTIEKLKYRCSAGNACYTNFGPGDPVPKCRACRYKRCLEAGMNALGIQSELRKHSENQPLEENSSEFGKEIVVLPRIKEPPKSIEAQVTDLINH
# [3] = target: nhr-34 (F58G6.5) (Caenorhabditis elegans) (UniProt Q21006)
# nhr-34 (F58G6.5) (Caenorhabditis elegans), sequence (Q21006 99-268): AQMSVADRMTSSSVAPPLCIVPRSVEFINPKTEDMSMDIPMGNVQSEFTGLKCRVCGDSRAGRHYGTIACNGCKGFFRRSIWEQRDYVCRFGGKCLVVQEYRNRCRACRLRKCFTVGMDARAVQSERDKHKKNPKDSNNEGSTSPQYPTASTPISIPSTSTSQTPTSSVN
# [4] = target: T3, nhr-1 (R09G11.2) (Caenorhabditis elegans) (UniProt Q21878)
# T3 sequence: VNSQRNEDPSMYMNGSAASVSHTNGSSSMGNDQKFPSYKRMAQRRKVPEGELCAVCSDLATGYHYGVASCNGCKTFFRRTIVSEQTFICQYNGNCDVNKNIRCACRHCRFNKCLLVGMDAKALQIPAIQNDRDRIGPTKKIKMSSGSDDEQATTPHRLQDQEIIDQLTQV
# [5] = target: T4, atf-5 (T04C10.4) (Caenorhabditis elegans) (UniProt Q22156)
# T4 sequence: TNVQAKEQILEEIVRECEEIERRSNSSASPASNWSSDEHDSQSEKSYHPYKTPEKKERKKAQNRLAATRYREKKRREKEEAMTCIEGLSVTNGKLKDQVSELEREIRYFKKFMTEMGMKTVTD
# [6] = target: T5, nhr-46 (C45E5.6) (Caenorhabditis elegans) (UniProt Q95QR2)
# T5 sequence: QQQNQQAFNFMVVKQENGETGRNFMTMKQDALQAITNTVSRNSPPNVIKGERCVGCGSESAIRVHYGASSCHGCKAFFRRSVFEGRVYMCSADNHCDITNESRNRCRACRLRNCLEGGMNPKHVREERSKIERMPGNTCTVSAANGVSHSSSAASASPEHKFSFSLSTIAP
# [7] = target: T6, nhr-66 (T09A12.4) (Caenorhabditis elegans) (UniProt H2KYJ8)
# T6 sequence: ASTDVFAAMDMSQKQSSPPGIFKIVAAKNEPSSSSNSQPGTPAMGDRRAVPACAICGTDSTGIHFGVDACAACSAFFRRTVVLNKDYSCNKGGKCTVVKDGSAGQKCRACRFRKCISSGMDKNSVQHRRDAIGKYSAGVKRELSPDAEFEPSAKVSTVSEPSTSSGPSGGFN
# [8] = target: T7, nhr-3 (H01A20.1) (Caenorhabditis elegans) (UniProt Q9XTJ4)
# T7 sequence: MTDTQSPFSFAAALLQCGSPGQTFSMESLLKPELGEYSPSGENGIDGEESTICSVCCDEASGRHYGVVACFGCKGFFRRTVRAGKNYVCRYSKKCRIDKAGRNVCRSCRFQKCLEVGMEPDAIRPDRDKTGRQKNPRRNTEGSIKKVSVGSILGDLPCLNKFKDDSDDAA
# [9] = target: T8, atf-6 (F45E6.2) (Caenorhabditis elegans) (UniProt Q20435)
# T8 sequence: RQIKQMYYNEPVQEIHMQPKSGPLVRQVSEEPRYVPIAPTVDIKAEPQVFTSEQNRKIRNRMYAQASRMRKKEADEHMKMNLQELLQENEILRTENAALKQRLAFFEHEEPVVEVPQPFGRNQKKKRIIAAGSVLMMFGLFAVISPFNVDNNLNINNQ
# [10] = target: T9, ceh-34 (C10G8.6) (Caenorhabditis elegans) (UniProt Q94165)
# T9 sequence: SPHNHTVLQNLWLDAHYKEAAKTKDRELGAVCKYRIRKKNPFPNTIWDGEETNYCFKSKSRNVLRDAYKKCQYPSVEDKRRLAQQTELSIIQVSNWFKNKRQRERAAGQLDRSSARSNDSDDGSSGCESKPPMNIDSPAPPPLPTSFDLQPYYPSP
# [11] = target: T10, end-1 (F58E10.2) (Caenorhabditis elegans) (UniProt G5EDN4)
# T10 sequence: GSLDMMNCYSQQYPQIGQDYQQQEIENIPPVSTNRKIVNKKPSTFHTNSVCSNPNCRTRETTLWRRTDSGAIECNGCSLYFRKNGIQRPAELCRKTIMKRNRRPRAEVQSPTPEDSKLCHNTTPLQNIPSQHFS
# [12] = target: atf-7 (C07G2.2) (Caenorhabditis elegans) (UniProt Q86MD3)
# atf-7 (C07G2.2) (Caenorhabditis elegans), sequence (Q86MD3 339-508): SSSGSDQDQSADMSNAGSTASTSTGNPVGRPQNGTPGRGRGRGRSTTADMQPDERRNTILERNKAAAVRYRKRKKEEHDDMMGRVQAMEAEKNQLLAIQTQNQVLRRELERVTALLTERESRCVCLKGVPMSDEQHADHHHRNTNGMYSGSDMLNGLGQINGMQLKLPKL
sequence,measurement,setting,value
AGTCAGAA (double strand) [8-mer AGTCAGAA],binding signal (PBM E-score (-0.5 to 0.5)),[1],0.498
TTGATCAA (double strand) [8-mer TTGATCAA],binding signal (PBM E-score (-0.5 to 0.5)),[2],0.493
same,binding signal (PBM E-score (-0.5 to 0.5)),[3],0.481
AATTGATC (double strand) [8-mer AATTGATC],binding signal (PBM E-score (-0.5 to 0.5)),[2],0.477
GATGATCA (double strand) [8-mer GATGATCA],binding signal (PBM E-score (-0.5 to 0.5)),[4],0.488
CGTCAGCA (double strand) [8-mer CGTCAGCA],binding signal (PBM E-score (-0.5 to 0.5)),[5],0.457
CGAGATCA (double strand) [8-mer CGAGATCA],binding signal (PBM E-score (-0.5 to 0.5)),[6],0.46
same,binding signal (PBM E-score (-0.5 to 0.5)),[3],0.472
AGGGATCA (double strand) [8-mer AGGGATCA],binding signal (PBM E-score (-0.5 to 0.5)),[4],0.479
TCTGATCA (double strand) [8-mer TCTGATCA],binding signal (PBM E-score (-0.5 to 0.5)),[2],0.482
ACTACACG (double strand) [8-mer ACTACACG],binding signal (PBM E-score (-0.5 to 0.5)),[7],0.481
GGTCAGAA (double strand) [8-mer GGTCAGAA],binding signal (PBM E-score (-0.5 to 0.5)),[1],0.498
AAGATCAG (double strand) [8-mer AAGATCAG],binding signal (PBM E-score (-0.5 to 0.5)),[8],0.466
same,binding signal (PBM E-score (-0.5 to 0.5)),[3],0.47
GTTGATCA (double strand) [8-mer GTTGATCA],binding signal (PBM E-score (-0.5 to 0.5)),[2],0.482
same,binding signal (PBM E-score (-0.5 to 0.5)),[4],0.477
CGTCAGAA (double strand) [8-mer CGTCAGAA],binding signal (PBM E-score (-0.5 to 0.5)),[1],0.493
GTCAGAAA (double strand) [8-mer GTCAGAAA],binding signal (PBM E-score (-0.5 to 0.5)),[1],0.496
ATGATCAC (double strand) [8-mer ATGATCAC],binding signal (PBM E-score (-0.5 to 0.5)),[4],0.486
AGAGATCA (double strand) [8-mer AGAGATCA],binding signal (PBM E-score (-0.5 to 0.5)),[8],0.462
same,binding signal (PBM E-score (-0.5 to 0.5)),[6],0.478
same,binding signal (PBM E-score (-0.5 to 0.5)),[3],0.488
same,binding signal (PBM E-score (-0.5 to 0.5)),[4],0.474
ATGATCAT (double strand) [8-mer ATGATCAT],binding signal (PBM E-score (-0.5 to 0.5)),[4],0.476
GATCAGAA (double strand) [8-mer GATCAGAA],binding signal (PBM E-score (-0.5 to 0.5)),[1],0.497
AAGATCAC (double strand) [8-mer AAGATCAC],binding signal (PBM E-score (-0.5 to 0.5)),[8],0.471
GTGATCAA (double strand) [8-mer GTGATCAA],binding signal (PBM E-score (-0.5 to 0.5)),[2],0.478
same,binding signal (PBM E-score (-0.5 to 0.5)),[4],0.472
AGATCAAC (double strand) [8-mer AGATCAAC],binding signal (PBM E-score (-0.5 to 0.5)),[8],0.467
same,binding signal (PBM E-score (-0.5 to 0.5)),[6],0.483
same,binding signal (PBM E-score (-0.5 to 0.5)),[3],0.478
ACTACAAC (double strand) [8-mer ACTACAAC],binding signal (PBM E-score (-0.5 to 0.5)),[7],0.482
ATCAGAAG (double strand) [8-mer ATCAGAAG],binding signal (PBM E-score (-0.5 to 0.5)),[1],0.494
GACCAAAA (double strand) [8-mer GACCAAAA],binding signal (PBM E-score (-0.5 to 0.5)),[2],0.476
TCTGACCA (double strand) [8-mer TCTGACCA],binding signal (PBM E-score (-0.5 to 0.5)),[1],0.491
ACTACACT (double strand) [8-mer ACTACACT],binding signal (PBM E-score (-0.5 to 0.5)),[7],0.487
AAGTCAGA (double strand) [8-mer AAGTCAGA],binding signal (PBM E-score (-0.5 to 0.5)),[1],0.493
TGTCAGAA (double strand) [8-mer TGTCAGAA],binding signal (PBM E-score (-0.5 to 0.5)),[1],0.496
TAGACCAA (double strand) [8-mer TAGACCAA],binding signal (PBM E-score (-0.5 to 0.5)),[2],0.479
ATTCTGAC (double strand) [8-mer ATTCTGAC],binding signal (PBM E-score (-0.5 to 0.5)),[1],0.495
CTGACGTA (double strand) [8-mer CTGACGTA],binding signal (PBM E-score (-0.5 to 0.5)),[9],0.474
same,binding signal (PBM E-score (-0.5 to 0.5)),[5],0.455
ACGTCAGC (double strand) [8-mer ACGTCAGC],binding signal (PBM E-score (-0.5 to 0.5)),[9],0.469
same,binding signal (PBM E-score (-0.5 to 0.5)),[5],0.491
TGATCAAA (double strand) [8-mer TGATCAAA],binding signal (PBM E-score (-0.5 to 0.5)),[2],0.483
CGTCATCC (double strand) [8-mer CGTCATCC],binding signal (PBM E-score (-0.5 to 0.5)),[5],0.487
AATTGGTC (double strand) [8-mer AATTGGTC],binding signal (PBM E-score (-0.5 to 0.5)),[2],0.484
AGGTCAAC (double strand) [8-mer AGGTCAAC],binding signal (PBM E-score (-0.5 to 0.5)),[8],0.465
ATTGATCA (double strand) [8-mer ATTGATCA],binding signal (PBM E-score (-0.5 to 0.5)),[2],0.489
same,binding signal (PBM E-score (-0.5 to 0.5)),[4],0.479
AAACTACA (double strand) [8-mer AAACTACA],binding signal (PBM E-score (-0.5 to 0.5)),[7],0.484
ACTACACA (double strand) [8-mer ACTACACA],binding signal (PBM E-score (-0.5 to 0.5)),[7],0.484
CAAGATCA (double strand) [8-mer CAAGATCA],binding signal (PBM E-score (-0.5 to 0.5)),[6],0.463
same,binding signal (PBM E-score (-0.5 to 0.5)),[3],0.474
CGTCAGCC (double strand) [8-mer CGTCAGCC],binding signal (PBM E-score (-0.5 to 0.5)),[5],0.491
GGTGATCA (double strand) [8-mer GGTGATCA],binding signal (PBM E-score (-0.5 to 0.5)),[4],0.488
AACTACAC (double strand) [8-mer AACTACAC],binding signal (PBM E-score (-0.5 to 0.5)),[7],0.486
ACAGATCA (double strand) [8-mer ACAGATCA],binding signal (PBM E-score (-0.5 to 0.5)),[8],0.456
AGACCAAT (double strand) [8-mer AGACCAAT],binding signal (PBM E-score (-0.5 to 0.5)),[2],0.486
GAGATCAA (double strand) [8-mer GAGATCAA],binding signal (PBM E-score (-0.5 to 0.5)),[8],0.46
same,binding signal (PBM E-score (-0.5 to 0.5)),[6],0.495
same,binding signal (PBM E-score (-0.5 to 0.5)),[3],0.491
ACTGATCA (double strand) [8-mer ACTGATCA],binding signal (PBM E-score (-0.5 to 0.5)),[2],0.477
same,binding signal (PBM E-score (-0.5 to 0.5)),[4],0.478
TGATATCA (double strand) [8-mer TGATATCA],binding signal (PBM E-score (-0.5 to 0.5)),[5],0.474
same,binding signal (PBM E-score (-0.5 to 0.5)),[10],0.483
same,binding signal (PBM E-score (-0.5 to 0.5)),[11],0.493
ATAGATCA (double strand) [8-mer ATAGATCA],binding signal (PBM E-score (-0.5 to 0.5)),[8],0.466
AATGACGT (double strand) [8-mer AATGACGT],binding signal (PBM E-score (-0.5 to 0.5)),[5],0.459
same,binding signal (PBM E-score (-0.5 to 0.5)),[12],0.497
AGCGATCA (double strand) [8-mer AGCGATCA],binding signal (PBM E-score (-0.5 to 0.5)),[4],0.476
AATGATCA (double strand) [8-mer AATGATCA],binding signal (PBM E-score (-0.5 to 0.5)),[4],0.493
TAAGATCA (double strand) [8-mer TAAGATCA],binding signal (PBM E-score (-0.5 to 0.5)),[8],0.477
same,binding signal (PBM E-score (-0.5 to 0.5)),[6],0.474
GAAGATCA (double strand) [8-mer GAAGATCA],binding signal (PBM E-score (-0.5 to 0.5)),[6],0.466
same,binding signal (PBM E-score (-0.5 to 0.5)),[3],0.466
CTGATCAA (double strand) [8-mer CTGATCAA],binding signal (PBM E-score (-0.5 to 0.5)),[2],0.481
GTGATCAC (double strand) [8-mer GTGATCAC],binding signal (PBM E-score (-0.5 to 0.5)),[4],0.489
AATGTAGT (double strand) [8-mer AATGTAGT],binding signal (PBM E-score (-0.5 to 0.5)),[7],0.48
CAACTACA (double strand) [8-mer CAACTACA],binding signal (PBM E-score (-0.5 to 0.5)),[7],0.484
CAGACCAA (double strand) [8-mer CAGACCAA],binding signal (PBM E-score (-0.5 to 0.5)),[2],0.479
AGATCAAT (double strand) [8-mer AGATCAAT],binding signal (PBM E-score (-0.5 to 0.5)),[8],0.473
same,binding signal (PBM E-score (-0.5 to 0.5)),[6],0.49
same,binding signal (PBM E-score (-0.5 to 0.5)),[3],0.486
AGTGATCA (double strand) [8-mer AGTGATCA],binding signal (PBM E-score (-0.5 to 0.5)),[4],0.495
